From PMC5741687, “A Novel Role for CSRP1 in a Lebanese Family with Congenital Cardiac Defects” (Frontiers in Genetics, 2017)

T1: HA-tagged serum response factor (SRF) (UniProt P11831 1-508)
T1 sequence (looked up): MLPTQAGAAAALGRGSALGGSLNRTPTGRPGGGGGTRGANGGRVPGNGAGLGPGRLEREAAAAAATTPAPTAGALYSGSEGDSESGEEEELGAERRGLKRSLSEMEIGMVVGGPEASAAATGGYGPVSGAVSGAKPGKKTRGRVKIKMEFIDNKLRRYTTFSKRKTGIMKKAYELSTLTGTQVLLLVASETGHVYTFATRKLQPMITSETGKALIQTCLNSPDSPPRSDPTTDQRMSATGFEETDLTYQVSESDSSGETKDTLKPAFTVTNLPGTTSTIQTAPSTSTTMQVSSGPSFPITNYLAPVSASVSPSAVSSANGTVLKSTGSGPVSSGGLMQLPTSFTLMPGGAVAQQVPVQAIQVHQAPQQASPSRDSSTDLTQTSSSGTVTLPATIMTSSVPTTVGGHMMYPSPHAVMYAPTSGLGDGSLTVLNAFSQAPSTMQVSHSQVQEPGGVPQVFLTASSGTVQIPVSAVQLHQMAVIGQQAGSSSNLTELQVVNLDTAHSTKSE

T2: HA-tagged TBX5 (UniProt Q99593 1-518)
T2 sequence (looked up): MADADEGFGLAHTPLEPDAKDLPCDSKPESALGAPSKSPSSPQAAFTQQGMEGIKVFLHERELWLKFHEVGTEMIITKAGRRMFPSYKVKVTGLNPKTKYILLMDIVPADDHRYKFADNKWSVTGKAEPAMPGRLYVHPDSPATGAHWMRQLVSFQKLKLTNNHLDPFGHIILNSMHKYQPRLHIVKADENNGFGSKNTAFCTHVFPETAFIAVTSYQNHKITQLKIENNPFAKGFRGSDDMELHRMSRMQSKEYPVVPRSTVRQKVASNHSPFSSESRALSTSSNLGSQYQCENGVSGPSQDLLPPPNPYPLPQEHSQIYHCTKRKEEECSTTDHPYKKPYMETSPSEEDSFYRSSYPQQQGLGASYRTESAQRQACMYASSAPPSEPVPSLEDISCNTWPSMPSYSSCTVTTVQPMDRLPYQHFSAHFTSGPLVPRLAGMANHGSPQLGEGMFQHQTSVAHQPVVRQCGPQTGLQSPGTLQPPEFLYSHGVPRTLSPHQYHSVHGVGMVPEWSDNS

B1: Flag-tagged wild type human CSRP1 (natural protein, UniProt P21291 1-193, looked up)
chain: MPNWGGGKKCGVCQKTVYFAEEVQCEGNSFHKSCFLCMVCKKNLDSTTVAVHGEEIYCKSCYGKKYGPKGYGYGQGAGTLSTDKGESLGIKHEEAPGHRPTTNPNASKFAQKIGGSERCPRCSQAVYAAEKVIGAGKSWHKACFRCAKCGKGLESTTLADKDGEIYCKGCYAKNFGPKGFGFGQGAGALVHSE

How the values were obtained:
[1] = biological target: HA-tagged serum response factor (SRF) (UniProt P11831)
HA-tagged GATA4 [2] = biological target: HA-tagged GATA4 (UniProt P43694)
HA-tagged GATA4 [3] = biological target: HA-tagged GATA4 (UniProt P43694); assay: co-IP; nuclear extracts (200 ug protein) of HEK293 cells transiently overexpressing both proteins; anti-HA on Dynabeads Protein G, 2 h at RT, washed three times with PBS; blot with anti-Flag, then stripped and probed with anti-HA
HA-tagged GATA6 = HA-tagged GATA6 (UniProt Q92908); assay: as above
HA-tagged TBX5 [4] = biological target: HA-tagged TBX5 (UniProt Q99593); assay: as above
[5] = biological target: HA-tagged serum response factor (SRF) (UniProt P11831); assay: as above
[6] = biological target: T1, HA-tagged serum response factor (SRF); assay: cell-based or functional assay
HA-tagged GATA4 [7] = biological target: HA-tagged GATA4 (UniProt P43694 1-442); assay: cell-based or functional assay
HA-tagged TBX5 [8] = biological target: T2, HA-tagged TBX5; assay: cell-based or functional assay

Sequence of HA-tagged GATA4 (UniProt P43694) (P43694 whole entry): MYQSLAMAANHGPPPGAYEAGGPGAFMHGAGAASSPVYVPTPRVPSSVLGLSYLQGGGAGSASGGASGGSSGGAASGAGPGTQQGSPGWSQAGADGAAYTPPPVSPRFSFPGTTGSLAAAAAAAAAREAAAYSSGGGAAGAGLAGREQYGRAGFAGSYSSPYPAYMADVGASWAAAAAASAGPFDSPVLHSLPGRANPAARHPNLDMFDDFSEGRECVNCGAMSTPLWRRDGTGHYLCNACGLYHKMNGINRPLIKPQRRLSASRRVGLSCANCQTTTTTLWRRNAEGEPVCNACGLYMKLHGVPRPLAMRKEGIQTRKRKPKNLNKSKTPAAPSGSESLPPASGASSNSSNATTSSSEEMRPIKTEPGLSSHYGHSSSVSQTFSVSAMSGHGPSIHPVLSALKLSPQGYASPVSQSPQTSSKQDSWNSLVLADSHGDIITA
Sequence of HA-tagged GATA6 (Q92908 whole entry): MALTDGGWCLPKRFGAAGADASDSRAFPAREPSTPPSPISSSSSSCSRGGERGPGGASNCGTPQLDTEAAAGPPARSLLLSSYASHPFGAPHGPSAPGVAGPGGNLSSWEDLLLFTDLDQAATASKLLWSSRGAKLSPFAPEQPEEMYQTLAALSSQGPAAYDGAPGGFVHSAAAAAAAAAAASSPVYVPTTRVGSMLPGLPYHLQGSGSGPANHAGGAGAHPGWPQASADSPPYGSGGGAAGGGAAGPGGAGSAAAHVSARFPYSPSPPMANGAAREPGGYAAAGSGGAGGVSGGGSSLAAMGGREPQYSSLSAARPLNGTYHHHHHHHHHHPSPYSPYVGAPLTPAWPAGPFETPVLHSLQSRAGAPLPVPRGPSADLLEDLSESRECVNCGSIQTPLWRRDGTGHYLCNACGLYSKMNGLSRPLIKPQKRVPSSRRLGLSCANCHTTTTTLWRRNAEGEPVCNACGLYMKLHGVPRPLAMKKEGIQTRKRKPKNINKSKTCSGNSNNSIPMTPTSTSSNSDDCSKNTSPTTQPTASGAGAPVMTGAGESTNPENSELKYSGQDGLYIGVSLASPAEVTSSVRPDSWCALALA
Sequence of HA-tagged GATA4 (UniProt P43694 1-442) (P43694 whole entry): as the sequence (P43694 whole entry) above

Molecule	percent inhibition of the synergy with SRF over the NPPA-luciferase promoter, co-transfection in HEK293 cells [1] [%]	synergy on the NPPA, VEGF and NOS3 luciferase promoters, co-transfection assays, fold activation (promoter of the number not told); synergy completely lost (HA-tagged GATA4 [2]) [fold]	percent inhibition of the co-precipitation against wild-type CSRP1 (HA-tagged GATA4 [3]) [%]	percent increase of the co-precipitation against wild-type CSRP1 (HA-tagged GATA6) [%]	percent decrease of the co-precipitation against wild-type CSRP1 (HA-tagged TBX5 [4]) [%]	percent inhibition of the co-precipitation against wild-type CSRP1 [5] [%]	synergistic activation of the NOS3-luciferase promoter, co-transfection in HEK293 cells, fold activation [6] [fold]	synergistic activation of the NPPA-luciferase promoter, co-transfection in HEK293 cells, fold activation [6] [fold]	synergistic activation of the VEGF-luciferase promoter, co-transfection in HEK293 cells, fold activation [6] [fold]	synergy on the NPPA, VEGF and NOS3 luciferase promoters, co-transfection assays, fold activation (promoter of the number not told) (HA-tagged GATA4 [7]) [fold]	synergistic activation of the NPPA, VEGF and NOS3 luciferase promoters, co-transfection in HEK293 (CSRP1 400 and 600 ng, TBX5 200 and 400 ng); highest value on the NOS3 promoter (HA-tagged TBX5 [8]) [fold]
Flag-tagged p.E154Vfs*99 CSRP1 mutant (from UniProt P21291 1-153) (natural protein)	50	5	< 85	15	< 55.3	82	–	–	–	–	–
B1	–	–	–	–	–	–	14	100	22.3	22	40
